From publication PMC6277545, “Structural Basis for the Limited Response to Oxidative and Thiol-Conjugating Agents by Triosephosphate Isomerase From the Photosynthetic Bacteria Synechocystis” (Frontiers in Molecular Biosciences, 2018)

Molecular target: the molecule itself
Assay: SEC; Superdex 75 10/300 column, compared with MW standards (conalbumin, ovalbumin, carbonic anhydrase, Ribonuclease A); apparent molecular mass of SyTPI 54 kDa

B1: Synechocystis sp. PCC 6803 triosephosphate isomerase (enzyme)
chain: GPHMRKIIIAGNWKMHKTQAEAQAFLQGFKPLIEDAAESREVVLCVPFTDLSGMSQQLHGGRVRLGAQNVHWEASGAYTGEISAAMLTEIGIHYVVIGHSERRQYFGETDETANLRVLAAQKAGLIPILCVGESKAQRDAGETEQVIVDQVKKGLVNVDQSNLVIAYEPIWAIGTGDTCAATEANRVIGLIREQLTNSQVTIQYGGSVNANNVDEIMAQPEIDGALVGGASLEPQSFARIVNFQP
notes: triosephosphate isomerase of Synechocystis sp; PCC 6803, GenBank BAK50928.1; Crystallised with the substrate analog 2-phosphoglycolate (2-PG); also called SyTPI; Synechocystis TPI; source: E. coli BL21 (DE3) Δtpi, purified (HisTrap, PreScission Protease, Superdex 75 gel filtration); not shown: His tag (from the HisTrap column and the modified pET19 vector), N-terminal, cleaved
For B1, the “stoichiometry N” value was 2.

B2: Arabidopsis thaliana cytosolic triosephosphate isomerase (enzyme, UniProt P48491 1-254, looked up)
chain: MARKFFVGGNWKCNGTAEEVKKIVNTLNEAQVPSQDVVEVVVSPPYVFLPLVKSTLRSDFFVAAQNCWVKKGGAFTGEVSAEMLVNLDIPWVILGHSERRAILNESSEFVGDKVAYALAQGLKVIACVGETLEEREAGSTMDVVAAQTKAIADRVTNWSNVVIAYEPVWAIGTGKVASPAQAQEVHDELRKWLAKNVSADVAATTRIIYGGSVNGGNCKELGGQADVDGFLVGGASLKPEFIDIIKAAEVKKSA
notes: cytosolic triosephosphate isomerase of Arabidopsis thaliana; also called AtcTPI; cytosolic TPI isoform of A. thaliana
For B2, the “stoichiometry N” value was 2.
